According to patent US20080075726A1 (VACCINEX, published 2008):

B1: mAb 186 (antibody, V domains shown)
VH: QVTLKESGPALVKPTQTLTLTCTFSGFSLTTSGMCVSWIRQPPGKALEWLALIYWDDDKRYNPSLRSRLTITKDTSKNQVVLTMTNMDPVDTATYYCARSYDDYLYYALDYWGQGTLVT
VL: DVVMTQSPSSLSASVGGRVTITCRASQTIGDYLNWYQQKPGKAPRLLIYSASIVQSGVPSRFSASGSGTDFTLTISSLQPEDFATYSCQQSYSFPLTFGGGTKLEIK
B2: mAb 187 (antibody, V domains shown)
VH: QVTLKESGPALVKPTQTLTLTCTFSGFSLTTSGMCVSWIRQPPGKALEWLALIYWDDDKRYNPSLRSRLTITKDTSKNQVVLTMTNMDPVDTATYYCARSYDDYLYYALDYWGQGTLVT
VL: EIVLTQSPSSLSASAGDTVTIACRASQGIRTALAWYQQKPGRNPKLLISEAYRLQSGVSPKFSGSGFGTDFTLTINSLQPEDFATYYCQQFNDFPLTFGGGTKLEIK
B3: mAb 188 (antibody, V domains shown)
VH: QVTLKESGPALVKPTQTLTLTCTFSGFSLTTSGMCVSWIRQPPGKALEWLALIYWDDDKRYNPSLRSRLTITKDTSKNQVVLTMTNMDPVDTATYYCARSYDDYLYYALDYWGQGTLVT
VL: DIQMTQSPSTLSASVGDRVTITCRASQSISRWLAWYQQKPGKAPKLLISKASSLEYGVPSRFSGSGSGTEFALTISNVQPEDFATYYCQQSFAVPLTFGGGTKLEIK
B4: mAb 189 (antibody, V domains shown)
VH: QVTLKESGPALVKPTQTLTLTCTFSGFSLTTSGMCVSWIRQPPGKALEWLALIYWDDDKRYNPSLRSRLTITKDTSKNQVVLTMTNMDPVDTATYYCARSYDDYLYYALDYWGQGTLVT
VL: DIQMTQSPSSLSAFVGDGVTMTCWASQSINDYLNWYHQRPGEAPELLVFAASNLQIGVPSRFRGSGSETYFTLTINSLQPEDSGTYFCQQTSSFPLTFGGGTKLE
B5: mAb 1127 (antibody, V domains shown)
VH: QVTLKESGPTLVKPTQTLTLTCSFSGFSLSTSGVGVGWVRQPPGKALEWLAFIFWDDDKYYSPSLESRLTITKDTSKNQVVLTMTNMDPVDTATYYCARSYDDYLMYALDYWGQGTLVT
VL: DIQMTQSPSSLSAFVGDGVTMTCWASQSINDYLNWYHQRPGEAPELLVFAASNLQIGVPSRFRGSGSETYFTLTINSLQPEDSGTYFCQNGHSFPLTFGGGTKLEI
B6: mAb 1155 (antibody, V domains shown)
VH: QVTLKESGPTLVKPTQTLTLTCSFSGFSLSTSGVGVGWVRQPPGKALEWLAFIFWDDDKYYSPSLESRLTITKDTSKNQVVLTMTNMDPVDTATYYCARSADDYLYYSFDTWGQGTLVT
VL: DIQMTQSPSSLSAFVGDGVTMTCWASQSINDYLNWYHQRPGEAPELLVFAASNLQIGVPSRFRGSGSETYFTLTINSLQPEDSGTYFCQHGHSFPLTFGGGTKLEI
B7: mAb 1123 (antibody, V domains shown)
VH: QVTLKESGPTLVKPTQTLTLTCSFSGFSLSTSGVGVGWVRQPPGKALEWLAFIFWDDDKYYSPSLESRLTITKDTSKNQVVLTMTNMDPVDTATYYCARFYDDYLYYALDYWGQGTLVT
VL: DIQMTQSPSSLSAFVGDGVTMTCWASQSINDYLNWYHQRPGEAPELLVFAASNLQIGVPSRFRGSGSETYFTLTINSLQPEDSGTYFCQNGHSFPLTFGGGTKLEI
B8: mAb 191 (antibody, V domains shown)
VH: QVTLKESGPALVKPTQTLTLTCTFSGFSLTTSGMCVSWIRQPPGKALEWLALIYWDDDKRYNPSLRSRLTITKDTSKNQVVLTMTNMDPVDTATYYCARSYDDYLYYALDYWGQGTLVT
VL: DVVMTQSPSSLSASVGGRVTITCRASQTIGDYLNWYQQRPGKAPRLLIYSASIVQSGVPSRFSGSGSGTHFTLTISSLQPEDFATYSCQQSYSFPLTFGGGTKLEIK
B9: mAb 770 (antibody, V domains shown)
VH: QVTLKESGPTLVKPTQTLTLTCSFSGFSLSTSGVGVGWVRQPPGKALEWLAFIFWDDDKYYSPSLESRLTITKDTSKNQVVLTMTNMDPVDTATYYCARSYDDYLYYALDYWGQGTLVT
VL: DIQMTQSPSSLSAFVGDGVTMTCWASQSINDYLNWYHQRPGEAPELLVFAASNLQIGVPSRFRGSGSETYFTLTINSLQPEDSGTYFCQHGHSFPLTFGGGTKLEI
B10: mAb 963 (antibody, V domains shown)
VH: QVTLKESGPTLVKPTQTLTLTCSFSGFSLSTSGVGVGWVRQPPGKALEWLAFIFWDDDKYYSPSLESRLTITKDTSKNQVVLTMTNMDPVDTATYYCARSGDDYLYYALDYWGQGTLVT
VL: DIQMTQSPSSLSAFVGDGVTMTCWASQSINDYLNWYHQRPGEAPELLVFAASNLQIGVPSRFRGSGSETYFTLTINSLQPEDSGTYFCQNGHSFPLTFGGGTKLEI
B11: mAb 1154 (antibody, V domains shown)
VH: QVTLKESGPTLVKPTQTLTLTCSFSGFSLSTSGVGVGWVRQPPGKALEWLAFIFWDDDKYYSPSLESRLTITKDTSKNQVVLTMTNMDPVDTATYYCARSADDYLYYSFDTWGQGTLVT
VL: DIQMTQSPSSLSAFVGDGVTMTCWASQSINDYLNWYHQRPGEAPELLVFAASNLQIGVPSRFRGSGSETYFTLTINSLQPEDSGTYFCQNGHSFPLTFGGGTKLEI
B12: mAb 765 (antibody, V domains shown)
VH: QVTLKESGPTLVKPTQTLTLTCSFSGFSLSTSGVGVGWVRQPPGKALEWLAFIFWDDDKYYSPSLESRLTITKDTSKNQVVLTMTNMDPVDTATYYCARSYDDYLYYALDYWGQGTLVT
VL: DIQMTQSPSSLSAFVGDGVTMTCWASQSINDYLNWYHQRPGEAPELLVFAASNLQIGVPSRFRGSGSETYFTLTINSLQPEDSGTYFCQNAHSFPLTFGGGTKLEI
B13: mAb 1156 (antibody, V domains shown)
VH: QVTLKESGPTLVKPTQTLTLTCSFSGFSLSTSGVGVGWVRQPPGKALEWLAFIFWDDDKYYSPSLESRLTITKDTSKNQVVLTMTNMDPVDTATYYCARSADDYLYYSFDTWGQGTLVT
VL: DIQMTQSPSSLSAFVGDGVTMTCWASQSINDYLNWYHQRPGEAPELLVFAASNLQIGVPSRFRGSGSETYFTLTINSLQPEDSGTYFCQSGHSFPLTFGGGTKLEI
B14: mAb 968 (antibody, V domains shown)
VH: QVTLKESGPTLVKPTQTLTLTCSFSGFSLSTSGVGVGWVRQPPGKALEWLAFIFWDDDKYYSPSLESRLTITKDTSKNQVVLTMTNMDPVDTATYYCARSYDDYLYYAFDYWGQGTLVT
VL: DIQMTQSPSSLSAFVGDGVTMTCWASQSINDYLNWYHQRPGEAPELLVFAASNLQIGVPSRFRGSGSETYFTLTINSLQPEDSGTYFCQNGHSFPLTFGGGTKLEI
B15: mAb 992 (antibody, V domains shown)
VH: QVTLKESGPTLVKPTQTLTLTCSFSGFSLSTSGVGVGWVRQPPGKALEWLAFIFWDDDKYYSPSLESRLTITKDTSKNQVVLTMTNMDPVDTATYYCARSYDDYLYYALDTWGQGTLVT
VL: DIQMTQSPSSLSAFVGDGVTMTCWASQSINDYLNWYHQRPGEAPELLVFAASNLQIGVPSRFRGSGSETYFTLTINSLQPEDSGTYFCQNGHSFPLTFGGGTKLEI
B16: mAb 275 (antibody, V domains shown)
VH: QVTLKESGPALVKPTQTLTLTCTFSGFSLTTSGMCVSWIRQPPGKALEWLALIYWDDDKRYNPSLRSRLTITKDTSKNQVVLTMTNMDPVDTATYYCARSYDDYLYYALDYWGQGTLVT
VL: DIQMTQSPSSLSAFVGDGVTMTCWASQSINDYLNWYHQRPGEAPELLVFAASNLQIGVPSRFRGSGSETYFTLTINSLQPEDSGTYFCQNGHSFPLTFGGGTKLEI
B17: mAb 810 (antibody, V domains shown)
VH: QVTLKESGPTLVKPTQTLTLTCSFSGFSLSTSGVGVGWVRQPPGKALEWLAFIFWDDDKYYSPSLESRLTITKDTSKNQVVLTMTNMDPVDTATYYCARSYDDYLYYSLDYWGQGTLVT
VL: DIQMTQSPSSLSAFVGDGVTMTCWASQSINDYLNWYHQRPGEAPELLVFAASNLQIGVPSRFRGSGSETYFTLTINSLQPEDSGTYFCQNGHSFPLTFGGGTKLEI
B18: mAb 1192 (antibody, V domains shown)
VH: QVTLKESGPTLVKPTQTLTLTCSFSGFSLSTSGVGVGWVRQPPGKALEWLAFIWWDDDKYYSPSLESRLTITKDTSKNQVVLTMTNMDPVDTATYYCARSYDDYLYYALDYWGQGTLVT
VL: DIQMTQSPSSLSAFVGDGVTMTCWASQSINDYLNWYHQRPGEAPELLVFAASNLQIGVPSRFRGSGSETYFTLTINSLQPEDSGTYFCQNGHSFPLTFGGGTKLEI
B19: mAb 808 (antibody, V domains shown)
VH: QVTLKESGPTLVKPTQTLTLTCSFSGFSLSTSGVGVGWVRQPPGKALEWLAFIFWDDDKYYSPSLESRLTITKDTSKNQVVLTMTNMDPVDTATYYCARSYDDYLYYALDYWGQGTLVT
VL: DIQMTQSPSSLSAFVGDGVTMTCWASQSINDYLNWYHQRPGEAPELLVFAASNLQIGVPSRFRGSGSETYFTLTINSLQPEDSGTYFCQNGWSFPLTFGGGTKLEI
B20: mAb 774 (antibody, V domains shown)
VH: QVTLKESGPTLVKPTQTLTLTCSFSGFSLSTSGVGVGWVRQPPGKALEWLAFIFWDDDKYYSPSLESRLTITKDTSKNQVVLTMTNMDPVDTATYYCARSYDDYLYYALDYWGQGTLVT
VL: DIQMTQSPSSLSAFVGDGVTMTCWASQSINDYLNWYHQRPGEAPELLVFAASNLQIGVPSRFRGSGSETYFTLTINSLQPEDSGTYFCQSGHSFPLTFGGGTKLEI

What follows are binders tested against T1, recombinant human IL-6 (human, UniProt P05231 30-212, limits assumed) (assay: competition ELISA, rhIL-6 in solution against captured IL-6).
T1 construct: also called rhIL6; human recombinant IL-6
Procedure: Briefly, plates were coated with 2 μg/ml of mBE4 capture antibody in coating buffer, 100 μl per well. The plates were incubated overnight. Next, the plates were washed 3 times and tapped dry. The plates were then blocked with 200 μl per well of Assay Diluent or 10% FBS in PBS and incubated for 2 hours. […] The reaction was left at RT for 3-4 hours. […] Next, the plates were washed 3 times and tapped dry. […] The plates were incubated for 1-2 hours. The plates were washed 3 times and tapped dry. […] The plates were incubated at RT for 2 hours. (Therefore, any unbound mAb at this point will be measured by ELISA). Plates were then washed 5 times and tapped dry. 100 μl of detection Ab goat anti-human IgG F(ab)′2-HRP (Jackson lab) was added at 1:20,000 dilutions or 1:40,000 dilutions (depending on lot) and the plates were incubated for 1-2 hours. The plates were washed 7 times and tapped dry. Next, the Developer Substrate (equal parts of each reagent in the kit) was pre-mixed and allowed to warm to room temperature before use. Then 100 μl of Developer was added to each well. The plates were allowed to develop for 15 minutes un-sealed in a drawer in the dark. Finally, developing was stopped by adding 100 μl of 2N H₂SO₄ to each well and plates were read as Endpoint at 450 nm-[…].

B1 and B2 are within 1.5-fold of each other in IC50: 2 nM for the first, 2.4 nM for the second.

Compared with B3, B4 is 1.9-fold lower in IC50: 1.4 nM for the first, 0.72 nM for the second.

First: B5
Second: B6
The IC50 of the first is 2.8-fold higher: 0.09 nM for the first, 0.032 nM for the second. The second is the more potent here.

Going from B7 to B8, the IC50 rises from 0.11 nM to 1.5 nM (14-fold). The first is the more potent here.

B9 and B10 are within 1.5-fold of each other in IC50: 0.12 nM for the first, 0.09 nM for the second.

Going from B11 to B12, the IC50 rises from 0.027 nM to 0.07 nM (2.6-fold).

Compared with B13, B14 is 2.3-fold higher in IC50: 0.023 nM for the first, 0.053 nM for the second.

Compared with B15, B16 is 11-fold higher in IC50: 0.065 nM for the first, 0.7 nM for the second.

First: B17
Second: B18
The IC50 of the first is 7.6-fold higher: 0.22 nM for the first, 0.029 nM for the second. The second is the more potent here.

Compared with B19, B20 is 2-fold higher in IC50: 0.08 nM for the first, 0.16 nM for the second. The first is the more potent here.
